Assay results as given in US10010626B2, “Molecular constructs with targeting and effector moieties” (Immunwork Inc., priority 2015, dated 2018).

Tested on: CD3-Fc-fusion protein
Assay: ELISA analysis of TCO- and DBCO-conjugated scFv specific for CD3
Format: binding
Conditions: anti-PD1 scFv negative control, anti-CD3 scFv positive control
Procedure: The DNA sequence encoding SEQ ID NO: 42 was synthesized and expressed as in the above Examples. The sequences of VL and VH of scFv specific for CD3 were those of VL and VH of mutated Teplizumab. For the conjugation with Mal-PEG3-TCO and Mal-PEG5-DBCO (Conju-probe, Inc.), the cysteine residue at the C-terminal end of the purified scFv of the mutated teplizumab was reduced by incubating 5 mM DTT at room temperature for 4 hours with gentle shaking. The buffer of reduced anti-CD3 scFv was exchanged to sodium phosphate buffer (100 mM sodium phosphate, pH7.0, 50 mM NaCl, and 5 mM EDTA) by using NAP-10 Sephadex G-25 column. After the reduction reaction and buffer exchange, conjugation was conducted overnight at room temperature in a reaction molar ratio of 1:1 ([Mal-PEG3-TCO or Mal-PEG5-DBCO:[scFv]]. The excess crosslinker was removed by a desalting column and the TCO-conjugated and DBCO-conjugated scFv products were analyzed.
The purity of TCO-conjugated scFvs specific for CD3 was identified through Coomassie staining of 12% SDS-PAGE (data not shown). FIG. 23A and […] show, respectively, the ELISA analysis of TCO-conjugated scFv and DBCO-conjugated scFv specific for CD3, in which anti-PD1 scFv and anti-CD3 scFv were used as a negative control and positive control, respectively.

Chain of CD3-Fc-fusion protein (P07766 23-126 limits assumed): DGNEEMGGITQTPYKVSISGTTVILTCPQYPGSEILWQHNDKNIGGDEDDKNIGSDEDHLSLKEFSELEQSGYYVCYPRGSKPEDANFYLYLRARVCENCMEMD

| binding to CD3-Fc-fusion protein (ELISA) | Molecule |
| --- | --- |
| bound to CD3-Fc-fusion protein | TCO-conjugated scFv: scFv of mutated teplizumab (SEQ ID NO: 42) conjugated with Mal-PEG3-TCO (protein, Mal-PEG3-TCO conjugate; mutated teplizumab scFv) scFv: DIQMTQSPSSLSASVGDRVTITCSASSSVSYMNWYQQTPGKAPKRWIYDTSKLASGVPSRFSGSGSGTDYTFTISSLQPEDIATYYCQQWSSNPFTFGQGTKLQITRGSTSGSGKPGSGEGSTKGQVQLVQSGGGVVQPGRSLRLSCKASGYTFTRYTMHWVRQAPGKGLEWIGYINPSRGYTNYNQKVKDRFTISRDNSKNTAFLQMDSLRPEDTGVYFCARYYDDHYSLDYWGQGTPVTVSSGGGGSGGGGSC |
| bound to CD3-Fc-fusion protein | DBCO-conjugated scFv specific for CD3: scFv of mutated teplizumab (SEQ ID NO: 42) conjugated with Mal-PEG5-DBCO (protein, Mal-PEG5-DBCO conjugate; mutated teplizumab scFv) scFv: DIQMTQSPSSLSASVGDRVTITCSASSSVSYMNWYQQTPGKAPKRWIYDTSKLASGVPSRFSGSGSGTDYTFTISSLQPEDIATYYCQQWSSNPFTFGQGTKLQITRGSTSGSGKPGSGEGSTKGQVQLVQSGGGVVQPGRSLRLSCKASGYTFTRYTMHWVRQAPGKGLEWIGYINPSRGYTNYNQKVKDRFTISRDNSKNTAFLQMDSLRPEDTGVYFCARYYDDHYSLDYWGQGTPVTVSSGGGGSGGGGSC |
